T1: myoglobin (Mb) (UniProt P02144 2-154)
T1 sequence: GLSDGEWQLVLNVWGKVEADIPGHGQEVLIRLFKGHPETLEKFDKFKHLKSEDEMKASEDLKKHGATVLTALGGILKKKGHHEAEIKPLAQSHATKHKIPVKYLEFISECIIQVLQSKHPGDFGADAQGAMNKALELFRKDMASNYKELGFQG

B1: RBD-46–PEA3-01 (structured_DNA)
DNA: GGGGCTGCTCGGGATTGCGGATATGGTTTGGGCGGGTTGGGCTGGG
B2: PEA3-01–RBD-46 (structured_DNA)
DNA: GGGCGGGTTGGGCTGGGTTTGGGGCTGCTCGGGATTGCGGATATGG

Tests used:
[1] = biological target: T1, myoglobin (Mb); assay: dot blot (aptamer blotting); folded in 10 mM K acetate pH 5.0; dot blot: 10 mM sodium phosphate pH 7.0, 10 mM KCl, 0.05% Tween-20, 100 nM oligonucleotide, 25 C, 1 h (block 2% BSA); ELONA: 500 nM aptamer, 25 C, 1 h, TBS-T wash; details: protein: commercial; label: 3'-biotinylated oligonucleotide mixed; mixed or hybrid (3+1) G4 at pH 5.0
[2] = biological target: T1, myoglobin (Mb); assay: dot blot (aptamer blotting); folded in 10 mM K acetate pH 5.0; higher signal than N2 at low Mb; dot blot: 10 mM sodium phosphate pH 7.0, 10 mM KCl, 0.05% Tween-20, 100 nM oligonucleotide, 25 C, 1 h (block 2% BSA); ELONA: 500 nM aptamer, 25 C, 1 h, TBS-T wash; details: protein: commercial; label: 3'-biotinylated oligonucleotide mixed; parallel G4 at pH 7.0 with 10 mM Na+ and 10 mM K+

| Binder | binding result [1] | binding result [2] |
| --- | --- | --- |
| B1 | binds |  |
| B2 |  | binds |

From publication PMC11578312, “Proximity‐Unlocked Luminescence by Sequential Enzymatic Reactions from Antibody and Antibody/Aptamer (PULSERAA): A Platform for Detection and Visualization of Virus‐Containing Spots”
